3 molecules from paper PMC9985226, “A fully human connective tissue growth factor blocking monoclonal antibody ameliorates experimental rheumatoid arthritis through inhibiting angiogenesis” (BMC Biotechnology, 2023) can be followed below.

Test [1] addresses T1, recombinant human connective tissue growth factor (CTGF) (Homo sapiens, UniProt P29279). Briefly: cell-based or functional assay.
Test [2] addresses T1, recombinant human connective tissue …. The test can be described thus: SPR; Biacore T200; CTGF amine-coupled on a CM5 chip; scFvs or IgG in running buffer PBS pH 7.4 flowed for 3 min at 10 µl/min, 5 min dissociation, regeneration with 1 M NaCl. The note with it: both partners purified. On the technique in general: In SPR one partner is held on a chip, and binding of the other changes the refractive index at the surface.

T1 sequence (P29279 27-349): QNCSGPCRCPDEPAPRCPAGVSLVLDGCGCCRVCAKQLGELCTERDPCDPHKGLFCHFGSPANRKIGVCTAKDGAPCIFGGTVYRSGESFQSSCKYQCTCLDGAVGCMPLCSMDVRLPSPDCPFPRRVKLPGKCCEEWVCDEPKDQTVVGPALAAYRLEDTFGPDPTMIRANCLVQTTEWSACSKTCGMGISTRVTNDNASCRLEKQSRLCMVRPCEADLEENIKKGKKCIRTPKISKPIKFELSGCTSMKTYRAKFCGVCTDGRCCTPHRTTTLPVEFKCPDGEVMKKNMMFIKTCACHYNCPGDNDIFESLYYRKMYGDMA

B1: anti-CTGF scFv B2 (scFv, V domains shown)
VH: QVQLVQSGAEVKKPGESLKISCKGSGYKFTSYWIAWVRQMPGKGLEWMGIIYPGGSDTRYSPSFQGQVTISDDRSSSTTYLQWSSLKASDTAIYYCARSGELMDVWGQGTTVTVSS
VL: SYVLTQPPSVSVSPGQTVSITCSGDKLGNKYASWYQQRPGQSPILVIYQDTKRPSGIPERFSGSNSGNTATLTISGTQAMDEADYYCQAWDSNTAFFGTGTKVTVL
notes: VH of scFv B2; the classical (Gly4Ser)3 linker between VH and VL; VL of scFv B2; Order VH-linker-VL as in the library construction; Selected from a fully human phage library made from PBMCs of RA patients; also called parental scFv B2; source: E. coli (pET28a, IPTG induced), purified (Ni Sepharose)
In general, Kd refers to the free concentration of one partner at which half of the binding sites on the other are occupied at equilibrium, for simple one-to-one binding. One may read the koff as a measure of how fast the partners let go of each other. The kon is the second-order rate constant of association. For B1, the “EC50 of inhibition of CTGF-induced HUVEC proliferation, CCK-8 assay, scFv 1-500 nM” value in test [1] came out at 37.4 nM. In test [2], the Kd turned out to be 252 nM, the koff worked out at 0.00574 s⁻¹ and the kon came to 22800 M⁻¹ s⁻¹.

B2: mut-scFv B2 (scFv, V domains shown)
VH: QVQLVQSGAEVKKPGESLKISCKGSGYKFTSYWIAWVRQMPGKGLEWMGIIYPGGSDTRYSPSFQGQVTISDDRSSSTTYLQWSSLKASDTAIYYCARLGGAMDVWGQGTTVTVSS
VL: SYVLTQPPSVSVSPGQTVSITCSGDKLGNKYASWYQQRPGQSPILVIYQDTKRPSGIPERFSGSNSGNTATLTISGTQAMDEADYYCQAWDSNTAFFGTGTKVTVL
notes: VH of mut-scFv B2; as the VH of m2 with three changes in VH-CDR3; the classical (Gly4Ser)3 linker between VH and VL; VL as the VL of m2; source: E. coli (pET28a, IPTG induced), purified (Ni Sepharose)
Regarding B2, in test [1], the “EC50 of inhibition of CTGF-induced HUVEC proliferation, CCK-8 assay, scFv 1-500 nM” value was 27.5 nM. In addition, in test [2], the Kd is 1.96 nM, the koff was determined as 0.00222 s⁻¹ and the kon was 1.13e+06 M⁻¹ s⁻¹.

B3: anti-CTGF IgG mut-B2 (antibody, V domains shown)
VH: QVQLVQSGAEVKKPGESLKISCKGSGYKFTSYWIAWVRQMPGKGLEWMGIIYPGGSDTRYSPSFQGQVTISDDRSSSTTYLQWSSLKASDTAIYYCARLGGAMDVWGQGTTVTVSS
VL: SYVLTQPPSVSVSPGQTVSITCSGDKLGNKYASWYQQRPGQSPILVIYQDTKRPSGIPERFSGSNSGNTATLTISGTQAMDEADYYCQAWDSNTAFFGTGTKLTVL
notes: heavy chain: VH of m3 with human IgG1 constant region; light chain: VL of m3 with antibody constant region; Human IgG1 format; also called full-length antibody IgG mut-B2; source: ExpiCHO, transiently expressed, purified from supernatant (Protein G Sepharose); copies: 2 + 2
As for B3, in test [2], the dissociation constant (Kd) worked out at 0.782 nM, the koff is 0.00365 s⁻¹ and the kon worked out at 4.67e+06 M⁻¹ s⁻¹.
